Columns and labels:
[1] = target: GFP–STIM2K dimer (oxidized, disulphide-linked through Cys725) (human) (UniProt Q9P246); assay: pull-down; competition: GFP–STIM2K dimer bound to Ca^2+/CaM beads, eluted with 75 μM purified CaM or CaM mutant in 1 mM CaCl2; percent of bound GFP–STIM2K eluted
[2] = target: GFP–Zipper–STIM1K (GFP, tetramerization domain of the Gcn4 leucine zipper variant pLI, STIM1 K-rich domain) (yeast | human) (UniProt Q13586); assay: SEC; Superdex 200 10/300 GL in HK buffer (25 mM HEPES/KOH pH 7.5, 150 mM KCl, 1 mM DTT), 0.5 ml/min; elution compared with marker proteins
[3] = target: GFP–STIM2K dimer (oxidized, disulphide-linked through Cys725) (human) (UniProt Q9P246)
[4] = target: GFP–STIM2K dimer (oxidized, disulphide-linked through Cys725) (human) (UniProt Q9P246); remark: listed apart in the source
[5] = target: GFP–STIM2K dimer (oxidized, disulphide-linked through Cys725) (human) (UniProt Q9P246); remark: listed apart in the source

Chain of GFP–STIM2K dimer (oxidized, disulphide-linked through Cys725) (human) (Q9P246 720-746): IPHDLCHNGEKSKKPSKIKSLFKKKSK

percent of GFP–STIM2K eluted from the Ca^2+/CaM beads [1] [%] | stoichiometry N [2] | reduction of binding of 2 μM GFP–STIM2K dimer to PC liposomes with 5 mol% PI(4,5)P2 after pre-incubation with 5 μM CaM in 100 μM CaCl2 (5-fold against no CaCl2, 3.8-fold against 100 μM CaCl2) [3] [%] | reduction of binding of 2 μM GFP–STIM2K dimer to PM-like liposomes with 2 mol% PI(4,5)P2 after pre-incubation with 5 μM CaM in 50, 100 or 200 μM CaCl2 (2.1-, 2.6- and 3.4-fold against CaCl2 alone) [4] [%] | reduction of binding of 2 μM GFP–STIM2K dimer to PM-like liposomes with 2 mol% PI(4,5)P2 after pre-incubation with 5 μM CaM in 100 μM CaCl2, against 100 μM CaCl2 alone [5] [%] | Substance
7 | – | – | – | – | CaM1–4m (human CaM1–4 mutant, all four EF-hand domains mutated) (from UniProt P0DP23 1-149) (natural protein)
– | 4 | – | – | – | GFP–Zipper–STIM1K (GFP, tetramerization domain of the Gcn4 leucine zipper variant pLI, STIM1 K-rich domain) (from UniProt Q13586-1 662-685)
45 | – | 74 | 71 | 61 | His(6)-tagged human CaM (calmodulin) (from UniProt P0DP23 1-149) (natural protein)

— article PMC3814058
